Results: article doi:10.1101/483925
Where two headings read alike, the source gives them in different places.

T1: FD full-length (Arabidopsis thaliana, UniProt Q84JK2 1-285)
T1 sequence: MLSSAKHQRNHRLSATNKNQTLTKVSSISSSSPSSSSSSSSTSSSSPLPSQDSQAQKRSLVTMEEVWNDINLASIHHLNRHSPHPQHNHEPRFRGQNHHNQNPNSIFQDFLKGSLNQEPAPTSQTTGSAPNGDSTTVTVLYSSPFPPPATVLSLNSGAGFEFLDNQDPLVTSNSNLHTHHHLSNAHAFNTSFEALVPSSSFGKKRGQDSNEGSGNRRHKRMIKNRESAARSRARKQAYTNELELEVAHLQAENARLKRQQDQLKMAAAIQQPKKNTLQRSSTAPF

T2: FD-C (Arabidopsis thaliana, UniProt Q84JK2 203-285)
T2 sequence: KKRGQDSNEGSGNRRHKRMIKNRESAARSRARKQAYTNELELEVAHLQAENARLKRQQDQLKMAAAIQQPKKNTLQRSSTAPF

T3: FD T282E full-length (Arabidopsis thaliana, UniProt Q84JK2 1-285, T282E)
T3 sequence: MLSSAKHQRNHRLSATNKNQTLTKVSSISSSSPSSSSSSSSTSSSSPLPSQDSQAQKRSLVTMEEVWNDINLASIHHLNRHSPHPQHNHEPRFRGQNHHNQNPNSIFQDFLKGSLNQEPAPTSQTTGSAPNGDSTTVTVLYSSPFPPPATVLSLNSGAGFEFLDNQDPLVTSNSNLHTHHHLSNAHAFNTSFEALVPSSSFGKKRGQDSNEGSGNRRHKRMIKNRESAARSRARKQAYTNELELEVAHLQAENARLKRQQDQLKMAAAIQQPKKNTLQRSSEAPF

T4: FD-C_T282E (Arabidopsis thaliana, UniProt Q84JK2 203-285, T282E)
T4 sequence: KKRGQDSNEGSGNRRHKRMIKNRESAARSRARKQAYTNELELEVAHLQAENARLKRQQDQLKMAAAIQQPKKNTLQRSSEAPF

T5: FD-C_T282E;14-3-3nu (GRF7) (Arabidopsis thaliana;Arabidopsis …, UniProt Q84JK2;Q96300 203-285;1-265, T282E|)
T5 sequence 1: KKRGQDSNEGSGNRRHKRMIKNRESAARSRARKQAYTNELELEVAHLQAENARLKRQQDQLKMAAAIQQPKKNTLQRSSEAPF
T5 sequence 2: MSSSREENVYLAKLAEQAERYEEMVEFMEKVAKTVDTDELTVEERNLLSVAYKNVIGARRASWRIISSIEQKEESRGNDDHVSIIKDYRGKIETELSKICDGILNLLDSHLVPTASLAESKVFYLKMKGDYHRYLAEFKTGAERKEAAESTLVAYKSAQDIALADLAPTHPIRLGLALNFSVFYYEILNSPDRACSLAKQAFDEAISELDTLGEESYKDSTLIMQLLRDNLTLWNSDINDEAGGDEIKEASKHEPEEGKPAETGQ


Experiments:
Assay in all cases: EMSA
FD full-length [1] = molecular target: T1, FD full-length
FD-C = molecular target: T2, FD-C
FD full-length [2] = molecular target: T1, FD full-length; remark: listed apart in the source
FD T282E full-length = molecular target: T3, FD T282E full-length
FD-C_T282E = molecular target: T4, FD-C_T282E
[3] = molecular target: T5, FD-C_T282E;14-3-3nu (GRF7)
[4] = molecular target: FD-C_T282E;14-3-3nu (GRF7);TFL1 (Arabidopsis thaliana;Arabidopsis …, UniProt Q84JK2;Q96300;P93003 203-285;1-265;1-177, T282E||)
Sequence of FD-C_T282E;14-3-3nu (GRF7);TFL1 (P93003 whole entry, stated change not applied, one chain of several): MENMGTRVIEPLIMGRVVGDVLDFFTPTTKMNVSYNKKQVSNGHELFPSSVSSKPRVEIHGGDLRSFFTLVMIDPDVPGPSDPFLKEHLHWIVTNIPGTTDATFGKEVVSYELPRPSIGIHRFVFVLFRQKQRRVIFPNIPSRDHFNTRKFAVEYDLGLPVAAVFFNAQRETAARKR

[5] = molecular target: FD-C;14-3-3nu (GRF7);TFL1 (Arabidopsis thaliana;Arabidopsis …, UniProt Q84JK2;Q96300;P93003 203-285;1-265;1-177, ||)
Sequence of FD-C;14-3-3nu (GRF7);TFL1 (P93003 whole entry, one chain of several): as the sequence (P93003 whole entry, stated change not applied, one chain of several) above

[6] = molecular target: T6, FD-C_T282E;14-3-3nu (GRF7);FT (Arabidopsis thaliana;Arabidopsis …, UniProt Q84JK2;Q96300;Q9SXZ2 203-285;1-265;1-175, T282E||)
T6 sequence (Q9SXZ2 whole entry, stated change not applied, one chain of several): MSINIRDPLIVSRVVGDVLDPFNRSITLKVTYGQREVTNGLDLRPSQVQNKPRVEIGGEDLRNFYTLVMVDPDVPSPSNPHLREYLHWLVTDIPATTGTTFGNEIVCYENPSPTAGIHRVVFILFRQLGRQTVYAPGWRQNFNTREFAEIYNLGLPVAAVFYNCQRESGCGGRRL

[7] = molecular target: T6, FD-C_T282E;14-3-3nu (GRF7);FT; remark: listed apart in the source

Binder | binding result (FD full-length [1]) | binding result (FD-C) | binding result [3] | binding result [4] | further results
SEP3 G-box to C-box (GACGTC) (dsDNA) DNA 1: CGAGATGTCGAGACGTCTCCAAACTCAT DNA 2: ATGAGTTTGGAGACGTCTCGACATCTCG | no binding | no binding | – | – | –
SEP3 G-box CG to GC (CAGCTG) (dsDNA) DNA 1: CGAGATGTCGACAGCTGTCCAAACTCAT DNA 2: ATGAGTTTGGACAGCTGTCGACATCTCG | binds | binds | – | – | –
SEP3 G-box CG to TA (CATATG) (dsDNA) DNA 1: CGAGATGTCGACATATGTCCAAACTCAT DNA 2: ATGAGTTTGGACATATGTCGACATCTCG | no binding | no binding | – | – | –
SEP3 promoter G-box probe (dsDNA) DNA 1: CGAGATGTCGACACGTGTCCAAACTCAT DNA 2: ATGAGTTTGGACACGTGTCGACATCTCG | – | – | binds | binds | binding result (FD full-length [2]): binds; binding result (FD T282E full-length): binds; binding result (FD-C_T282E): binds; binding result [5]: binds; binding result [6]: binds
AP1 promoter site 2 (dsDNA) DNA 1: TACCAATGAGAAGTCGACACGCAAATCCTA DNA 2: TAGGATTTGCGTGTCGACTTCTCATTGGTA | – | – | binds | binds | binding result [7]: binds
